{"source": "the Human Domainome abundance scans (Beltran et al. 2025)", "parents": {"B1": {"name": "Chromodomain-helicase-DNA-binding protein 4, residues 623 to 675; numbered along this chain, Q14839 (parent)", "chain": "MIHRILNHSVDKKGHVHYLIKWRDLPYDQASWESEDVEIQDYDLFKQSYWNHR"}}, "note": "± gives the uncertainty stated by the source."}
{"variants_of": "B1", "experiment": "abundance fitness (aPCA) (normalised: wild type 0, dead -1); higher = more abundant; growth selection in yeast, the domain comes from the species named", "settings": "Homo sapiens"}
{"variant": "Y27N", "abundance fitness": "0.042 ± 0.11"}
{"variant": "Y27P", "abundance fitness": "0.018 ± 0.092"}
{"variant": "Y27Q", "abundance fitness": "0.197 ± 0.14"}
{"variant": "Y27R", "abundance fitness": "0.04 ± 0.089"}
{"variant": "Y27T", "abundance fitness": "0.077 ± 0.086"}
{"variant": "Y27V", "abundance fitness": "0.097 ± 0.11"}
{"variant": "Y27W", "abundance fitness": "-0.18 ± 0.26"}
{"variant": "D28A", "abundance fitness": "0.116 ± 0.089"}
{"variant": "D28C", "abundance fitness": "-0.025 ± 0.14"}
{"variant": "D28F", "abundance fitness": "-0.553 ± 0.13"}
{"variant": "D28G", "abundance fitness": "-0.179 ± 0.097"}
{"variant": "D28H", "abundance fitness": "-0.139 ± 0.15"}
{"variant": "D28I", "abundance fitness": "-0.664 ± 0.16"}
{"variant": "D28K", "abundance fitness": "-0.124 ± 0.12"}
{"variant": "D28L", "abundance fitness": "-0.55 ± 0.1"}
{"variant": "D28M", "abundance fitness": "-0.685 ± 0.15"}
{"variant": "D28N", "abundance fitness": "-0.028 ± 0.11"}
{"variant": "D28Q", "abundance fitness": "-0.354 ± 0.14"}
{"variant": "D28R", "abundance fitness": "-0.169 ± 0.096"}
{"variant": "D28T", "abundance fitness": "-0.098 ± 0.12"}
{"variant": "D28V", "abundance fitness": "-0.462 ± 0.09"}
{"variant": "D28W", "abundance fitness": "-0.333 ± 0.18"}
{"variant": "D28Y", "abundance fitness": "-0.504 ± 0.14"}
{"variant": "Q29A", "abundance fitness": "-0.105 ± 0.11"}
{"variant": "Q29C", "abundance fitness": "-0.186 ± 0.12"}
{"variant": "Q29D", "abundance fitness": "-0.345 ± 0.16"}
{"variant": "Q29E", "abundance fitness": "-0.262 ± 0.15"}
{"variant": "Q29F", "abundance fitness": "-0.657 ± 0.14"}
{"variant": "Q29G", "abundance fitness": "-0.608 ± 0.12"}
{"variant": "Q29H", "abundance fitness": "-0.268 ± 0.17"}
{"variant": "Q29I", "abundance fitness": "-1.17 ± 0.27"}
{"variant": "Q29K", "abundance fitness": "0.101 ± 0.14"}
{"variant": "Q29L", "abundance fitness": "-0.239 ± 0.081"}
{"variant": "Q29M", "abundance fitness": "-0.4 ± 0.15"}
{"variant": "Q29N", "abundance fitness": "-0.48 ± 0.16"}
{"variant": "Q29P", "abundance fitness": "-0.802 ± 0.14"}
{"variant": "Q29R", "abundance fitness": "-0.118 ± 0.086"}
{"variant": "Q29S", "abundance fitness": "-0.27 ± 0.089"}
{"variant": "Q29T", "abundance fitness": "-0.702 ± 0.13"}
{"variant": "Q29W", "abundance fitness": "-0.589 ± 0.14"}
{"variant": "Q29Y", "abundance fitness": "-0.493 ± 0.19"}
{"variant": "A30C", "abundance fitness": "-0.136 ± 0.29"}
{"variant": "A30E", "abundance fitness": "-0.717 ± 0.41"}
{"variant": "A30F", "abundance fitness": "-0.586 ± 0.24"}
{"variant": "A30G", "abundance fitness": "-0.977 ± 0.44"}
{"variant": "A30H", "abundance fitness": "-0.645 ± 0.28"}
{"variant": "A30I", "abundance fitness": "0.111 ± 0.27"}
{"variant": "A30L", "abundance fitness": "-0.813 ± 0.2"}
{"variant": "A30N", "abundance fitness": "-0.347 ± 0.25"}
{"variant": "A30P", "abundance fitness": "-0.356 ± 0.15"}
{"variant": "A30Q", "abundance fitness": "-0.866 ± 0.31"}
{"variant": "A30R", "abundance fitness": "-0.401 ± 0.16"}
{"variant": "A30S", "abundance fitness": "-0.325 ± 0.16"}
{"variant": "A30T", "abundance fitness": "-0.653 ± 0.19"}
{"variant": "A30V", "abundance fitness": "-0.541 ± 0.28"}
{"variant": "A30W", "abundance fitness": "-0.465 ± 0.31"}
{"variant": "S31A", "abundance fitness": "-0.817 ± 0.13"}
{"variant": "S31C", "abundance fitness": "-0.551 ± 0.15"}
{"variant": "S31D", "abundance fitness": "-0.854 ± 0.16"}
{"variant": "S31E", "abundance fitness": "-0.784 ± 0.16"}
{"variant": "S31G", "abundance fitness": "-0.885 ± 0.14"}
{"variant": "S31H", "abundance fitness": "-0.916 ± 0.17"}
{"variant": "S31I", "abundance fitness": "-0.702 ± 0.13"}
{"variant": "S31M", "abundance fitness": "-1.01 ± 0.17"}
{"variant": "S31N", "abundance fitness": "-0.604 ± 0.14"}
{"variant": "S31Q", "abundance fitness": "-0.646 ± 0.14"}
{"variant": "S31R", "abundance fitness": "-0.656 ± 0.097"}
{"variant": "S31T", "abundance fitness": "0.067 ± 0.09"}
{"variant": "S31V", "abundance fitness": "-0.61 ± 0.11"}
{"variant": "S31W", "abundance fitness": "-0.767 ± 0.2"}
{"variant": "S31Y", "abundance fitness": "-0.711 ± 0.13"}
{"variant": "W32A", "abundance fitness": "-0.997 ± 0.15"}
{"variant": "W32C", "abundance fitness": "-0.783 ± 0.12"}
{"variant": "W32D", "abundance fitness": "-0.812 ± 0.18"}
{"variant": "W32E", "abundance fitness": "-0.737 ± 0.17"}
{"variant": "W32F", "abundance fitness": "-0.93 ± 0.18"}
{"variant": "W32G", "abundance fitness": "-0.88 ± 0.11"}
{"variant": "W32H", "abundance fitness": "-0.788 ± 0.15"}
{"variant": "W32I", "abundance fitness": "-0.71 ± 0.14"}
{"variant": "W32K", "abundance fitness": "-1.01 ± 0.19"}
{"variant": "W32L", "abundance fitness": "-0.732 ± 0.11"}
{"variant": "W32M", "abundance fitness": "-0.827 ± 0.18"}
{"variant": "W32N", "abundance fitness": "-0.776 ± 0.14"}
{"variant": "W32P", "abundance fitness": "-0.755 ± 0.12"}
{"variant": "W32Q", "abundance fitness": "-0.75 ± 0.15"}
{"variant": "W32R", "abundance fitness": "-0.724 ± 0.087"}
{"variant": "W32S", "abundance fitness": "-0.933 ± 0.12"}
{"variant": "W32T", "abundance fitness": "-0.955 ± 0.14"}
{"variant": "W32V", "abundance fitness": "-0.732 ± 0.11"}
{"variant": "W32Y", "abundance fitness": "-0.909 ± 0.17"}
{"variant": "E33A", "abundance fitness": "-0.109 ± 0.11"}
{"variant": "E33C", "abundance fitness": "0.13 ± 0.14"}
{"variant": "E33D", "abundance fitness": "-0.947 ± 0.24"}
{"variant": "E33F", "abundance fitness": "-0.528 ± 0.13"}
{"variant": "E33G", "abundance fitness": "-0.781 ± 0.17"}
{"variant": "E33H", "abundance fitness": "-0.266 ± 0.16"}
{"variant": "E33I", "abundance fitness": "0.101 ± 0.15"}
{"variant": "E33K", "abundance fitness": "-0.072 ± 0.13"}
{"variant": "E33L", "abundance fitness": "-0.164 ± 0.084"}
{"variant": "E33N", "abundance fitness": "-0.651 ± 0.21"}
{"variant": "E33P", "abundance fitness": "-0.895 ± 0.16"}
{"variant": "E33Q", "abundance fitness": "-0.152 ± 0.11"}
{"variant": "E33R", "abundance fitness": "-0.254 ± 0.095"}
{"variant": "E33V", "abundance fitness": "0.036 ± 0.11"}
{"variant": "E33W", "abundance fitness": "-0.566 ± 0.13"}
{"variant": "E33Y", "abundance fitness": "-0.406 ± 0.15"}
{"variant": "S34A", "abundance fitness": "-0.103 ± 0.1"}
{"variant": "S34C", "abundance fitness": "0.155 ± 0.1"}
{"variant": "S34E", "abundance fitness": "-0.004 ± 0.12"}
{"variant": "S34F", "abundance fitness": "-0.618 ± 0.12"}
{"variant": "S34G", "abundance fitness": "-0.106 ± 0.085"}
{"variant": "S34H", "abundance fitness": "0.136 ± 0.14"}
{"variant": "S34I", "abundance fitness": "-0.852 ± 0.23"}
{"variant": "S34K", "abundance fitness": "0.086 ± 0.14"}
{"variant": "S34L", "abundance fitness": "-0.411 ± 0.089"}
{"variant": "S34M", "abundance fitness": "-0.441 ± 0.14"}
{"variant": "S34N", "abundance fitness": "-0.137 ± 0.18"}
{"variant": "S34P", "abundance fitness": "-0.022 ± 0.1"}
{"variant": "S34Q", "abundance fitness": "-0.111 ± 0.12"}
{"variant": "S34R", "abundance fitness": "-0.081 ± 0.076"}
{"variant": "S34T", "abundance fitness": "-0.377 ± 0.11"}
{"variant": "S34Y", "abundance fitness": "-0.731 ± 0.15"}
{"variant": "E35A", "abundance fitness": "-0.141 ± 0.11"}
{"variant": "E35C", "abundance fitness": "-0.717 ± 0.16"}
{"variant": "E35D", "abundance fitness": "-0.332 ± 0.18"}
{"variant": "E35F", "abundance fitness": "-0.934 ± 0.21"}
{"variant": "E35G", "abundance fitness": "-0.22 ± 0.1"}
{"variant": "E35H", "abundance fitness": "-0.769 ± 0.24"}
{"variant": "E35I", "abundance fitness": "-0.765 ± 0.21"}
{"variant": "E35K", "abundance fitness": "-0.844 ± 0.17"}
{"variant": "E35L", "abundance fitness": "-0.833 ± 0.1"}
{"variant": "E35M", "abundance fitness": "-0.874 ± 0.15"}
{"variant": "E35P", "abundance fitness": "-0.874 ± 0.18"}
{"variant": "E35Q", "abundance fitness": "-0.391 ± 0.12"}
{"variant": "E35R", "abundance fitness": "-0.882 ± 0.1"}
{"variant": "E35S", "abundance fitness": "-0.131 ± 0.089"}
{"variant": "E35T", "abundance fitness": "-0.45 ± 0.12"}
{"variant": "E35V", "abundance fitness": "-0.809 ± 0.12"}
{"variant": "E35W", "abundance fitness": "-0.684 ± 0.15"}
{"variant": "E35Y", "abundance fitness": "-0.757 ± 0.15"}
{"variant": "D36A", "abundance fitness": "-0.455 ± 0.11"}
{"variant": "D36C", "abundance fitness": "-0.363 ± 0.13"}
{"variant": "D36E", "abundance fitness": "-0.102 ± 0.13"}
{"variant": "D36F", "abundance fitness": "-0.267 ± 0.15"}
{"variant": "D36G", "abundance fitness": "-0.299 ± 0.1"}
{"variant": "D36H", "abundance fitness": "-0.105 ± 0.11"}
{"variant": "D36I", "abundance fitness": "-0.915 ± 0.18"}
{"variant": "D36K", "abundance fitness": "-0.073 ± 0.12"}
{"variant": "D36L", "abundance fitness": "-0.402 ± 0.086"}
{"variant": "D36M", "abundance fitness": "-0.372 ± 0.12"}
{"variant": "D36N", "abundance fitness": "0.134 ± 0.11"}
{"variant": "D36P", "abundance fitness": "-0.909 ± 0.18"}
{"variant": "D36Q", "abundance fitness": "-0.415 ± 0.14"}
{"variant": "D36R", "abundance fitness": "-0.255 ± 0.084"}
{"variant": "D36S", "abundance fitness": "-0.079 ± 0.085"}
{"variant": "D36T", "abundance fitness": "-0.2 ± 0.11"}
{"variant": "D36V", "abundance fitness": "-0.833 ± 0.14"}
{"variant": "D36W", "abundance fitness": "-0.37 ± 0.11"}
{"variant": "V37A", "abundance fitness": "0.109 ± 0.077"}
{"variant": "V37C", "abundance fitness": "0.117 ± 0.1"}
{"variant": "V37D", "abundance fitness": "-0.262 ± 0.1"}
{"variant": "V37E", "abundance fitness": "-0.039 ± 0.16"}
{"variant": "V37F", "abundance fitness": "-0.166 ± 0.097"}
{"variant": "V37G", "abundance fitness": "-0.246 ± 0.095"}
{"variant": "V37H", "abundance fitness": "-0.126 ± 0.087"}
{"variant": "V37I", "abundance fitness": "-0.217 ± 0.089"}
{"variant": "V37K", "abundance fitness": "0.182 ± 0.14"}
